Patent publication US20240117065A1

Key:
Assay in all cases: cell-based or functional assay
[1] = target: Catalytically active human CD73 (biochemical assay) (human) (UniProt P21589)
[2] = target: Membrane-bound mouse CD73 (internalisation assay) (mouse) (UniProt Q61503)
[3] = target: Membrane-bound CD73 in MDA-MB-231 cells (UniProt P21589)
[4] = target: Catalytically active mouse CD73 (biochemical assay) (mouse) (UniProt Q61503)
[5] = target: Membrane-bound human CD73 (internalisation assay) (human) (UniProt P21589)
[6] = target: Soluble CD73 in MDA-MB-231 cells (UniProt P21589)

BMS-986179 (antibody)
% Inhibition of CD73 (biochemical assay), Human [1]: 20%
% internalisation of membrane-bound CD73, Mouse [2]: 7.14%
Murine % Inh, n = 1 (receptor internalisation assay) [2]: 5.18%
Murine % Inh, n = 2 (receptor internalisation assay) [2]: 9.09%
% Inhibition of CD73 (cell-based assay), Membrane-bound [3]: 29.9%
Max % Act Mean [3]: 31%
Max % Act n = 1 [3]: 30%
Max % Act n = 2 [3]: 32%
% Inhibition of CD73 (biochemical assay), Mouse [4]: 21.3%
% internalisation of membrane-bound CD73, Human [5]: 61.7%
Human % Inh, n = 1 (receptor internalisation assay) [5]: 8.99%
Human % Inh, n = 2 (receptor internalisation assay) [5]: 61.7%
% Inhibition of CD73 (cell-based assay), soluble [6]: 10.4%

MEDI9447 (antibody)
% Inhibition of CD73 (biochemical assay), Human [1]: 42.3%
% internalisation of membrane-bound CD73, Mouse [2]: 70.9%
Murine % Inh, n = 1 (receptor internalisation assay) [2]: 62.5%
Murine % Inh, n = 2 (receptor internalisation assay) [2]: 79.4%
% Inhibition of CD73 (cell-based assay), Membrane-bound [3]: 42%
Max % Act Mean [3]: 41.8%
Max % Act n = 1 [3]: 35.5%
Max % Act n = 2 [3]: 48%
% Inhibition of CD73 (biochemical assay), Mouse [4]: 49.1%
% internalisation of membrane-bound CD73, Human [5]: 58%
Human % Inh, n = 1 (receptor internalisation assay) [5]: 49.9%
Human % Inh, n = 2 (receptor internalisation assay) [5]: 66.2%
% Inhibition of CD73 (cell-based assay), soluble [6]: 40%

IgG1K (antibody)
Max % Act Mean [3]: 3.5%
Max % Act n = 2 [3]: 3.5%

IPH53 (antibody)
% Inhibition of CD73 (biochemical assay), Human [1]: 91.3%
% internalisation of membrane-bound CD73, Mouse [2]: 6.46%
Murine % Inh, n = 1 (receptor internalisation assay) [2]: 5.18%
Murine % Inh, n = 2 (receptor internalisation assay) [2]: 7.74%
% Inhibition of CD73 (cell-based assay), Membrane-bound [3]: 68.2%
Max % Act Mean [3]: 68.8%
Max % Act n = 1 [3]: 69.5%
Max % Act n = 2 [3]: 68%
% Inhibition of CD73 (biochemical assay), Mouse [4]: 17.8%
% internalisation of membrane-bound CD73, Human [5]: 47.5%
Human % Inh, n = 1 (receptor internalisation assay) [5]: 49%
Human % Inh, n = 2 (receptor internalisation assay) [5]: 46%
% Inhibition of CD73 (cell-based assay), soluble [6]: 77.1%
